Laboratory results: the supplement of paper PMC9170038

Tested on: MS2 coat protein
Test: apparent KD of MS2 coat protein; designed switch direction (-1 OFF switch, 1 ON switch): -1; higher = weaker reporter binding
Summary of the method: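 Each step of the titration lasted 0.8–1.5 h at the lowest concentration and 10–20 min at the highest. The protein, SNAP-549-labelled MS2 coat protein, went from 0.7 or 1.5 nM doubling to 3 µM over RNA switches transcribed on Illumina chips by stalled E. coli RNA polymerase. Normalised cluster fluorescence was curve-fitted, and the per-design median over clusters is given as apparent KD.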

[1] = input ligand: microRNA oligo, concentration not stated

UCACACGGAGGAUAUACCGUCGGUCAUUGGUGUGACGUAUCACAUGAGGAUCACCCAUGUAGAAGGCCGUGCUU [Eternabot (L2) Solution 14] (Eterna round: R97, puzzle: Exclusion 2)
apparent KD of MS2 coat protein (input ligand: FMN 200 uM): 394 nM | apparent KD of MS2 coat protein (input ligand: none): 208 nM

ACACCGCAAGGAUAUACUUGCGGUGGUGUUCGAAGCUUUCUACUUGAGGAUCACCCAAGUAGAAGGUGCGGUGU [jl-ex2.4.73 ViennaUCT mod] (Eterna round: R97, puzzle: Exclusion 2)
apparent KD of MS2 coat protein (input ligand: FMN 200 uM): 12.8 nM | apparent KD of MS2 coat protein (input ligand: none): 12.3 nM

AUACACUAACGAGGAUAUUGGAAAGGAAGUGUACAAGAAGGCGUCCGUGGAAGGGUGAAACAUGAGGAUCACCCAUGUGAAUAA [Exclusion NG 1] (Eterna round: R96, puzzle: Exclusion NG 1)
apparent KD of MS2 coat protein (input ligand: FMN 200 uM): 519 nM | apparent KD of MS2 coat protein [1]: 254 nM | apparent KD of MS2 coat protein (input ligand: none): 648 nM

GUCAUCACACAUGGGAUCAACAUGAGGAUCACCCAUGUUGCCAAGUUUUUUGCACGUCUUAUAAUACGUUUGAUGAG [Mod-Jxe] (Eterna round: R97, puzzle: Sensor, turn-off variant 1)
apparent KD of MS2 coat protein (input ligand: FMN 200 uM): 31.7 nM | apparent KD of MS2 coat protein (input ligand: none): 29.9 nM

UUUUUCUCAGGAUAUACAUGAGGAUCACCCAUGUAUAUUAAGAAUAAUACAUGGGAAUGUAGAAGGGAGCUCAU [Omei Ex3 Pseudoloop 10] (Eterna round: R97, puzzle: Exclusion 3)
apparent KD of MS2 coat protein (input ligand: FMN 200 uM): 101 nM | apparent KD of MS2 coat protein (input ligand: none): 129 nM

GAUUAACAUGAGGAUCACCCAUGUGAGGAUAUUGACUUGCUCACUUUCCCAUUAGAGUCGAGAAGGCGCAUCUG [1986#19] (Eterna round: R97, puzzle: Exclusion 1)
apparent KD of MS2 coat protein (input ligand: FMN 200 uM): 34.9 nM | apparent KD of MS2 coat protein (input ligand: none): 60.5 nM

AUUAUAAAGGCAGGAUAUACAUGAGGAUCACCCAUGUAUAUCCGAUAAUAAUAUAAGUGCCUCAUGUAGAAGGGCCAUUAUAUA [Same State Mistake] (Eterna round: R96, puzzle: Exclusion NG 2)
apparent KD of MS2 coat protein (input ligand: FMN 200 uM): 11.1 nM | apparent KD of MS2 coat protein [1]: 8.76 nM | apparent KD of MS2 coat protein (input ligand: none): 12.4 nM

UGGUAAUCAGUUAGGAUAUCAUCCGGCGUUGUCGGUGAGAAGGAACAUGAGGAUCACCCAUGUAUCGAUUUUAG [BmEX4 B.13] (Eterna round: R97, puzzle: Brourd's mod of Exclusion 4)
apparent KD of MS2 coat protein (input ligand: FMN 200 uM): 26.5 nM | apparent KD of MS2 coat protein (input ligand: none): 19 nM

ACAUGCUAGUAGGAUAUCGUACGCCGAAUAGUAUGAGAAGGAUUGACAUGAGGAUCACCCAUGUGAUGCCUGAA [Quveedes] (Eterna round: R97, puzzle: Exclusion 6)
apparent KD of MS2 coat protein (input ligand: FMN 200 uM): 22 nM | apparent KD of MS2 coat protein (input ligand: none): 18.7 nM

GGAUCGAGUGUGAGGAUAUACCUAUGGAAACAUAGGUAGAAGGCACAUGAGGAUCACCCAUGUUCCUACGGUCC [Mat - Exclusion 4 - Eli Mod - D8] (Eterna round: R97, puzzle: Brourd's mod of Exclusion 4)
apparent KD of MS2 coat protein (input ligand: FMN 200 uM): 658 nM | apparent KD of MS2 coat protein (input ligand: none): 75.5 nM

GCAGCAUAGAUGAAAAUCUGAUACAUGAGGAUCACCCAUGUACAGGAUAUGGUCUGGAUUACAGGCCAGAAGGGUACAAGCUGC [Eli exng3 - 012] (Eterna round: R96, puzzle: Exclusion NG 3)
apparent KD of MS2 coat protein (input ligand: FMN 200 uM): 15.7 nM | apparent KD of MS2 coat protein [1]: 10.4 nM | apparent KD of MS2 coat protein (input ligand: none): 12.1 nM

GGGCGUGAAGGAUAUACAUGAGGAUCACCCAUGUGGGAGGAGAGUGGUGAGGAGGCUGGUAGAAGGUCAGGAGG [JR_Exclusion3_Sub008] (puzzle: Exclusion 3)
apparent KD of MS2 coat protein (Eterna round: R95, input ligand: microRNA oligo, concentration not stated): 27.7 nM

AGUUGGCGAGGAUAUACAUGAGGAUCACCCAUGUGAUAUUAAAGUGAGGAAAUGAAAAGUAGAAGGCGCUGACA [Mod of Mat 24 - Jieux - Exclusion 3] (Eterna round: R97, puzzle: Exclusion 3)
apparent KD of MS2 coat protein (input ligand: FMN 200 uM): 662 nM | apparent KD of MS2 coat protein (input ligand: none): 47.3 nM

CAGCGACAUGAGGAUCACCCAUGUGGCUUCGUUCCCGCUGGCAAGGAUAUCCAGUCUUCGUGAGAGGAGAAGGUGCAAAAUAAG [Atveso] (Eterna round: R96, puzzle: Exclusion NG 3)
apparent KD of MS2 coat protein (input ligand: FMN 200 uM): 65.2 nM | apparent KD of MS2 coat protein [1]: 31.7 nM | apparent KD of MS2 coat protein (input ligand: none): 49.3 nM
